Measured values taken from paper PMC4254523.

Tests used:
Assay in all cases: SPR
[1] = target: human FcγRII (CD32), CD32B (human) (UniProt P31994)
[2] = target: human FcγRII (CD32), CD32A-131H (human) (UniProt P12318)
[3] = target: human FcγRII (CD32), CD32A-131R (human)

UniProt P31994, sequence (P31994 43-310): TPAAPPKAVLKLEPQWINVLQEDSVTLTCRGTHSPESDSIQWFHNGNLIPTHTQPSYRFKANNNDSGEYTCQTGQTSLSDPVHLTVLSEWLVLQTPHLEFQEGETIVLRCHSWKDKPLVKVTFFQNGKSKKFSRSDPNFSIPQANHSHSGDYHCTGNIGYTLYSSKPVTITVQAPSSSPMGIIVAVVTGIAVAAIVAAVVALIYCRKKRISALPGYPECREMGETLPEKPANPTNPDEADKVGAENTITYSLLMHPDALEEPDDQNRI
UniProt P12318, sequence (P12318 34-317): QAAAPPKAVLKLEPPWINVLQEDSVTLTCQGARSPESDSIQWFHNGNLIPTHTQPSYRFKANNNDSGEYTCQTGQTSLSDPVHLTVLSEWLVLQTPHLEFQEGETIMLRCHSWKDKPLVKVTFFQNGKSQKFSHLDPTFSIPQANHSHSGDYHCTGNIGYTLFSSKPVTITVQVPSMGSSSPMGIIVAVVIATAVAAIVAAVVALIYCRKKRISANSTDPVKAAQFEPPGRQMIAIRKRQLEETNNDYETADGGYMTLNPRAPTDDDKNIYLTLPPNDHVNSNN

Row | Molecule | Ka [1] [M⁻¹] | koff [1] [s⁻¹] | kon [1] [M⁻¹ s⁻¹] | Ka [2] [M⁻¹] | koff [2] [s⁻¹] | Ka [3] [M⁻¹] | koff [3] [s⁻¹] | kon [3] [M⁻¹ s⁻¹]
1 | hu3F8 (IgG1) (antibody) | 83700 | 0.341 | 28600 | 631000 | 0.427 | – | – | –
2 | mouse 3F8 (IgG3) (antibody) | 5660 | 2.03 | 11500 | 17300 | 1.1 | – | – | –
3 | hu3F8 (IgG1) (antibody, V domains shown) VH: QVQLVESGPGVVQPGRSLRISCAVSGFSVTNYGVHWVRQPPGKGLEWLGVIWAGGITNYNSAFMSRLTISKDNSKNTVYLQMNSLRAEDTAMYYCASRGGHYGYALDYWGQGTLVTVSS VL: EIVMTQTPATLSVSAGERVTITCKASQSVSNDVTWYQQKPGQAPRLLIYSASNRYSGVPARFSGSGYGTEFTFTISSVQSEDFAVYFCQQDYSSFGQGTKLEIK | – | – | – | – | – | 368000 | 0.406 | 149000
4 | mouse 3F8 (IgG3) (antibody, V domains shown) VH: QVQLKESGPGLVAPSQSLSITCTVSGFSVTNYGVHWVRQPPGKGLEWLGVIWAGGITNYNSAFMSRLSISKDNSKSQVFLKMNSLQIDDTAMYYCASRGGHYGYALDYWGQGTSVTVSS VL: SIVMTQTPKFLLVSAGDRVTITCKASQSVSNDVTWYQQKAGQSPKLLIYSASNRYSGVPDRFTGSGYGTAFTFTISTVQAEDLAVYFCQQDYSSFGGGTKLEIK | – | – | – | – | – | 71500 | 0.363 | 25900
